From paper PMC7615196, “PIM1 controls GBP1 activity to limit self-damage and to guard against pathogen infection” (Science (New York, N.Y.), 2023)

Key:
[1] = biological target: T1, in vitro phosphorylated recombinant GBP1 (human, UniProt P32455 1-592, phosphoserine at 156 (GBP1pS156); Ser569 and Thr590 also identified as sites phosphorylated by PIM1 in vitro); assay: ITC; GBP1 phosphorylated at S156
T1 chain: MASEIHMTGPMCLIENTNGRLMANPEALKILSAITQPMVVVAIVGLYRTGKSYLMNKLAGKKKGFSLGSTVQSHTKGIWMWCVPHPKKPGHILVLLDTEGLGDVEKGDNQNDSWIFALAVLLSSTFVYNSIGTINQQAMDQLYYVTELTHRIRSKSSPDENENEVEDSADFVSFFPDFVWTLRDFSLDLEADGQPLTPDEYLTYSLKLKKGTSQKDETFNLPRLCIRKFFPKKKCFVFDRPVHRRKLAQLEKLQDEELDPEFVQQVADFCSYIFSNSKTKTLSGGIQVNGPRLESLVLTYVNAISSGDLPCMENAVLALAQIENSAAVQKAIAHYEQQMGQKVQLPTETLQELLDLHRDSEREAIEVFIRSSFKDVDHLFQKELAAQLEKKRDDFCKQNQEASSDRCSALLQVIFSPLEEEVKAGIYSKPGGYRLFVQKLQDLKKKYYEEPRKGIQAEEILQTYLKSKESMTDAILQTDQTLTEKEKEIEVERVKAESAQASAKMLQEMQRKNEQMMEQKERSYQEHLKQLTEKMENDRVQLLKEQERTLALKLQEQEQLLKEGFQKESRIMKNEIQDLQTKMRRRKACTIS

[2] = biological target: the molecule itself; assay: cryo-EM structure; single particle cryo-EM of the SEC-purified phospho-GBP1:14-3-3σ complex; crystal structures docked as rigid bodies
[3] = biological target: T1, in vitro phosphorylated recombinant GBP1

B1: recombinant 14-3-3σ (natural protein, human, UniProt P31947 1-248, looked up)
chain: MERASLIQKAKLAEQAERYEDMAAFMKGAVEKGEELSCEERNLLSVAYKNVVGGQRAAWRVLSSIEQKSNEEGSEEKGPEVREYREKVETELQGVCDTVLGLLDSHLIKEAGDAESRVFYLKMKGDYYRYLAEVATGDDKKRIIDSARSAYQEAMDISKKEMPPTNPIRLGLALNFSVFHYEIANSPEEAISLAKTTFDEAMADLHTLSEDSYKDSTLIMQLLRDNLTLWTADNAGEEGGEAPQEPQS
notes: 14-3-3σ (stratifin), ORF from cDNA of IFNγ-primed THP-1 WT cells via pLenti-Tet-14-3-3σ into pET15d-6xHis-3C; homodimer in the cryo-EM map; also called SFN; YWHAS; source: E. coli BL21, purified (Ni-NTA, 3C cleavage, reverse Ni-IMAC, SEC); not shown: His6, N-terminal, cleaved
**Q.** For B1, which Kd [1] is on record?
**A.** 400 nM

**Q.** And the “stoichiometry N” value [2]?
**A.** 2

**Q.** What about the GTPase activity assay (rate of GTP hydrolysis, free phosphate by Malachite Green), 2 μM purified GBP1:14-3-3σ complex compared to free GBP1 [3] of the same binder?
**A.** > 8 fold
